Assay results: patent US20160177307

Target: PDGF-BB (platelet-derived growth factor BB) (Homo sapiens) (UniProt P01127)
Experiment: filter
[1] = all Z are BndU, rest DNA, SB18T, 37 C
[2] = all P are NapdU, rest DNA, SB18T, 37 C

Chain of PDGF-BB (platelet-derived growth factor BB) (Homo sapiens) (P01127 82-190): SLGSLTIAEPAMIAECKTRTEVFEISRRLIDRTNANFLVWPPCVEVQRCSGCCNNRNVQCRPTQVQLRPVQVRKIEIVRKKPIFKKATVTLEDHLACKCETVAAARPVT

CGACAGCATGTATGCACATCT [5169-4_34]
Kd (NapdU at P, 2'-OMe 4): 33 pM

CGACAGCATGTATGCACATCT [5169-4_132]
Kd (NapdU at P, 2'-OMe 1,2,3): 420 pM

TTACGTTACACGCGTTTATAGCG [4149-8_244]
Kd (Bn-dU, Heg5, 2'-OMe A3, A9, A11, A21, G24): > 10000 pM

CGACAGCATGTATGACATCT [5169-4_73]
Kd (C3 spacer at 15, NapdU at 9,11,13,19,21, C3 spacer walk): 15 pM

TTACGTTACCGCGTTTATAGCG [4149-8_434]
Kd (as 4149-8_379, PS 9,15): 32 pM

CGACAGCATGTATGCACATCT [5169-4_177]
Kd (as 5169-4_146, PS 20, 3' inverted dT): 7.2 pM

CTTACGACTACGTTACACGCGTTTATAGC [4149-8_31]
Kd [1]: 300 pM

TTACGACTACGTACACGCGTTTATAGCG [4149-8_75]
Kd (Bn-dU, C3 at 12): > 10000 pM

CGACAGCATGTATGCACATCTAGAGGCTACCCAGTGAATGAGGA [5169-4_5]
Kd (NapdU at P): 31 pM

TTACGTTACACGCGTTTATAGCG [4149-8_127]
Kd (Bn-dU, Nap-dU, Heg, 2'-OMe U as printed): > 10000 pM

CGACAGCATGTATGCACATCT [5169-4_36]
Kd (NapdU at P, 2'-OMe 15): 28 pM

TTACGACTACGTACACGCGTTTATAGCG [4149-8_76]
Kd (Bn-dU, C3 at 13): > 10000 pM

TTACGTTACCGCGTTTATAGCG [4149-8_455]
Kd (BndU, NapdU 16, 2'-OMe 3,7,12,13,18,19,21,24, PS 8,9,15,16,17, Heg 5, C3 11): 17 pM

CGACAGCATGTATGCACATCT [5169-4_156]
Kd (as 5169-4_146, PS 11, 3' inverted dT): 7.8 pM

ATCTCTTACGACTACGTTACACGCGTTTATAGCGTC [4149-8_10]
Kd [1]: 50 pM

CGACAGCATGTATGCACATCT [5169-4_37]
Kd (NapdU at P, 2'-OMe 17): 41 pM

TACGTTACACGCGTTTATAGCGTCAACCCGAGTGAACA [4149-8_16]
Kd [1]: 22000 pM

TTACGTTACCGCGTTTATAGCG [4149-8_423]
Kd (as 4149-8_379, 2'-OMe 13, NapdU 16): 33 pM

GACAGCATGTATGCACATCTAGAGGCTACCCAGTGAA [5169-4_13]
Kd (NapdU at P): 27 pM

CGACAGCATGTATGCACATCT [5169-4_50]
Kd (NapdU at P, 2'-OMe 11): 47 pM

CGACAGCATGTATGCACATCT [5169-4_173]
Kd (as 5169-4_146, PS 4, 3' inverted dT): 9.1 pM

CGACAGCATGTATGCACATCTAG [5169-4_24]
Kd (NapdU at P): 21 pM

TTACGTTACACGCGTTTATAGCG [4149-8_179]
Kd (Bn-dU, Trp-dU16, Heg5, 2'-OMe A3, A11, A21, G24): > 10000 pM

CTGCCTCGACAGCATGTATGCACATCTAGAGGCTA [5169-4_11]
Kd (NapdU at P): 600 pM

ACAGCATGTATGCACATCTAGAGGCTACCCAGTGAA [5169-4_14]
Kd [2]: 170 pM

CGACAGCATGTATGCACATCTAGAGGCTA [5169-4_18]
Kd (NapdU at P): 26 pM

TTACGTTACCGCGTTTATAGCG [4149-8_391]
Kd (BndU, PS 9,15, 2'-OMe, Heg 5, C3 11): 12 pM

CGACAGCATGTATGCACATCT [5169-4_105]
Kd (NapdU at P, 2'-OMe 6,18,20): 6.1 pM

CGACAGCATGTATGCACATCT [5169-4_123]
Kd (NapdU at P, 2'-OMe 1,20,21): 30 pM

TTACGTTACACGCGTTTATAGCG [4149-8_180]
Kd (Bn-dU, Trp-dU17, Heg5, 2'-OMe A3, A11, A21, G24): > 10000 pM

TTACGTTACCGCGTTTATAGCG [4149-8_424]
Kd (as 4149-8_379, 2'-OMe 13,14): 6600 pM

CGACAGCATGTATGCACATCT [5169-4_114]
Kd (NapdU at P, 2'-OMe 7,17,21): 38 pM

CGACACATGTATGCACATCT [5169-4_64]
Kd (C3 spacer at 6, NapdU at 9,11,13,19,21, C3 spacer walk): 54 pM

GACAGCATGTATGCACATCT [5169-4_30]
Kd [2]: 62 pM

TTACGTTACACGCGTTTATAGCGNT [4149-8_340]
Kd (4149-8_260 3'-3' dimer, Heg, doubler): 18.9 pM

CGACTACGTTACACGCGTTTATAGCGTCAACCCGAGTGAACA [4149-8_14]
Kd [1]: 13000 pM

TTACGACTACGTTACACGCGTTTATAGCG [4149-8_104]
Kd (Bn-dU, 2'-OMe U2): > 10000 pM

CGACAGCATGTATGCACATCT [5169-4_42]
Kd (2'-OMe G14, NapdU at 9,11,13,19,21, 2'-OMe substitution): 6.9 pM

CGACAGCATGTATGCACATCT [5169-4_153]
Kd (as 5169-4_146, PS 8, 3' inverted dT): 13 pM

TTACGTTACCGCGTTTATAGCG [4149-8_419]
Kd (as 4149-8_379, 2'-OMe 15, NapdU 16): 1300 pM

CTTACGACTACGTTACACGCGTTTATAGCG [4149-8_30]
Kd [1]: 70 pM

ATCTCTTACGACTACGTTACACGCGTTTATAGCGTCAACCCG [4149-8_7]
Kd [1]: 20 pM

ACACGCGTTTATAGCGTCAACCCGAGTGAACA [4149-8_19]
Kd [1]: 74000 pM

CGACAGCATGTATGCACATCT [5169-4_172]
Kd (as 5169-4_146, PS 1, 3' inverted dT): 13 pM

CGACAGCATGTATGCACATCT [5169-4_83]
Kd (NapdU at P, 2'-OMe 1,6,7,14,15,16,18,20,21): 2.1 pM

CGACAGCATGTATGCACATCT [5169-4_128]
Kd (NapdU at P, 2'-OMe 13,14,15): 99 pM

CGACAGCATGTATGCACATCT [5169-4_179]
Kd (as 5169-4_146, PS 14, 3' inverted dT): 7.7 pM

CGACAGCATGTATGCACATCTAGAGGCT [5169-4_19]
Kd [2]: 12 pM

CGACAGCATGTATGCACATCT [5169-4_40]
Kd (NapdU at P, 2'-OMe 6): 24 pM

TTACGTTACCGCGTTTATAGCG [4149-8_432]
Kd (as 4149-8_379, PS 9,15,17): 29 pM

CGACAGCATGTATGCACATCT [5169-4_178]
Kd (as 5169-4_146, PS 6, 3' inverted dT): 11 pM

CTTACGACTACGTTACACGCGTTTA [4149-8_35]
Kd (Bn-dU): > 10000 pM

TTACGTTACACGCGTTTATAGCG [4149-8_134]
Kd (Bn-dU): > 10000 pM

CGACAGCATGTATGCACATCT [5169-4_175]
Kd (as 5169-4_146, PS 15, 3' inverted dT): 6.9 pM

TTACGTTACACGCGTTTATAGCG [4149-8_276]
Kd (Bn-dU, FBn-dU7, Ib-dU8, Pe-dU17, Th-dU18, Heg5, 2'-OMe A3, A11, A21, G24): > 10000 pM

TTACGACTACTTACACGCGTTTATAGCG [4149-8_74]
Kd (Bn-dU, C3 at 11): > 10000 pM

CGACAGCATGTATGCACATCT [5169-4_127]
Kd (NapdU at P, 2'-OMe 16,17,18): 10 pM

CGACAGCATGTATGCACATCT [5169-4_116]
Kd (NapdU at P, 2'-OMe 4,17,21): 93 pM

TTACGTTACACGCGTTTATAGCG [4149-8_251]
Kd (Tyr, MBn, FBn, Ib, 2Nap, Pe, Th, NE dU, Heg, 2'-OMe): > 10000 pM

CGACAGCATGTATGCACATCT [5169-4_35]
Kd (NapdU at P, 2'-OMe 7): 16 pM

TTACGACTACGTTACACGCGTTTATAG [4149-8_40]
Kd (BndU at 1,2,8,12,13,21,22,23,25, rest DNA, SB18T, 37 C): 1500 pM

TTACGACTACGTTACACGCGTTTATAGCG [4149-8_111]
Kd (Bn-dU, Nap-dU1, 2'-OMe U25): > 10000 pM

CGACAGCATGTATGCACATCT [5169-4_108]
Kd (NapdU at P, 2'-OMe 1,6,14): 12 pM

TTACGTTACACGCGTTTATAGCG [4149-8_278]
Kd (Bn-dU, Tyr-dU1, FBn-dU7, Ib-dU8, 2Nap-dU16, Pe-dU17, Th-dU18, Heg5, 2'-OMe A3, A11, A21, G24): > 10000 pM

CGACAGCATGTATGCACATCT [5169-4_158]
Kd (as 5169-4_146, PS 13, 3' inverted dT): 19 pM

CGACAGCATGTATGCACATCT [5169-4_131]
Kd (NapdU at P, 2'-OMe 4,5,6): 640 pM

TTACGTTACCGCGTTTATAGCG [4149-8_425]
Kd (as 4149-8_379, 2'-OMe 9): 910 pM

TTACGTTACGCGTTTATAGCG [4149-8_304]
Kd (Bn-dU, C3 linkers, 2'-OMe): > 10000 pM

CGACAGCATGTATGCACATCT [5169-4_44]
Kd (2'-OMe A5, NapdU at 9,11,13,19,21, 2'-OMe substitution): 530 pM

CTTACGACTACGTTACACGCGTTTATAGCGT [4149-8_29]
Kd [1]: 70 pM

CGACAGCATGTATGCACATCT [5169-4_152]
Kd (as 5169-4_146, PS 5, 3' inverted dT): 15 pM

TTACGTTACCGCGTTTATAGCG [4149-8_422]
Kd (as 4149-8_379, 2'-OMe 13,15): 270 pM

CGACAGCATGTATGCACATCTAGA [5169-4_23]
Kd (NapdU at P): 20 pM

CTTACGACTACGTTACACGCGTTTATAG [4149-8_32]
Kd [1]: 6000 pM

E10030 (Fovista)
Kd (comparator): 47 pM

CGACAGCATGTATGCACATCTA [5169-4_25]
Kd (NapdU at P): 20 pM

TTACGACTACGTTACACGCGTTTAT [4149-8_42]
Kd (Bn-dU): > 10000 pM

TTACGACTACGTTACACGCGTTTATAGCGT [4149-8_37]
Kd [1]: 40 pM

CGACAGCATGTATGCACATCT [5169-4_150]
Kd (as 5169-4_146, PS 2, 3' inverted dT): 13 pM

CTGCCTCGACAGCATGTATGCACATCTAGAGGCTACCC [5169-4_10]
Kd (NapdU at P): 630 pM

TTACGACTACGTTACACGCGTTTATGCG [4149-8_89]
Kd (Bn-dU, C3 at 26): > 10000 pM

CGACAGCATGTATGCACATCT [5169-4_39]
Kd (NapdU at P, 2'-OMe 2): 58 pM

CTTACGACTACGTTACACGCGTTTAT [4149-8_34]
Kd (Bn-dU): > 10000 pM

GACAGCATGTATGCACATCTAG [5169-4_28]
Kd (NapdU at P): 48 pM

CGACAGCATGTATGCACATCT [5169-4_118]
Kd (NapdU at P, 2'-OMe 2,4,17): 560 pM

CGACAGCATGTATGCACATCT [5169-4_54]
Kd (NapdU at 11,13,19,21, dT at 9, dT substitution): 44000 pM

TTACGTTACCGCGTTTATAGCG [4149-8_453]
Kd (BndU, NapdU 16, 2'-OMe 3,7,12,13,18,19,21,24, PS 9,15,16,17, Heg 5, C3 11): 2 pM

TTACGTTACACGCGTTTATAGCG [4149-8_186]
Kd (Bn-dU, 2Nap-dU8, Heg5, 2'-OMe A3, A11, A21, G24): > 10000 pM

CGACAGCATGTATGCACATCT [5169-4_57]
Kd (NapdU at 9,11,13,21, dT at 19, dT substitution): 120000 pM

TTACGTTACCGCGTTTATAGCG [4149-8_433]
Kd (as 4149-8_379, NapdU 16, PS 9,15): 66 pM

CGACAGCATGTATGCACATCT [5169-4_125]
Kd (NapdU at P, 2'-OMe 1,5,20): 1000 pM
